Source: the supplement of paper PMC9732359
± gives the uncertainty stated by the source.

Assay: protein stability index of a GFP-peptide fusion (yeast GPS) (PSI 1-4); higher = more stable; sorted into four equal gates, so the index is relative within each strain
Method in brief: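 Yeast carrying a pooled library were grown to mid-log phase in leucine-free medium. Each library plasmid expresses Cherry and has a tiled 17-residue yeast protein peptide fused downstream of GFP. Cells were sorted into four equal gates by GFP/Cherry ratio, and plasmids from each gate were PCR-amplified, Illumina-sequenced and assigned to strains by barcode. Summing, across gates, the read frequency times the gate number gave each peptide's protein stability index.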

Row | Sequence | protein stability index (doa10∆) | protein stability index (pdr5∆) | protein stability index (san1∆) | protein stability index (ubr1∆)
1 | YISLLKLQGLYENIPIY [YDL116W/NUP84] | 1.67 ± 0.06 | 1.42 ± 0.045 | 1.59 ± 0.12 | 1.25 ± 0.041
2 | SPDGRNFQVEYAVKAVE [PRE10] | 2.8 ± 0.079 | 2.81 ± 0.077 | 2.65 ± 0.07 | 2.37 ± 0.085
3 | KVDNDLRIELQSVYNDE [SRB8] | 3.16 ± 0.22 | 3.29 ± 0.24 | 3.26 ± 0.12 | –
4 | DTISAITHQLNNKFANK [RPC25] | – | 2.42 ± 0.16 | – | –
5 | ALQILNSGIIPGNRNAD [FAS2] | 2.38 ± 0.075 | 1.9 ± 0.068 | 2.72 ± 0.1 | 2.8 ± 0.052
6 | ILIESRIHRLARYYRTV [RPS13] | 2.45 ± 0.11 | 2.06 ± 0.06 | 2.74 ± 0.087 | 2.1 ± 0.051
7 | GKIRGVEDDLVTVQTEL [SMC2] | 3.1 ± 0.12 | 2.62 ± 0.068 | 2.48 ± 0.077 | 2.85 ± 0.076
8 | TSPQYIPSPLSSTKPPG [NUT1] | 2.51 ± 0.039 | 2.42 ± 0.034 | 2.4 ± 0.048 | 2.45 ± 0.029
9 | AGETLILDGLTVRLVNL [SRB2] | 2.43 ± 0.071 | 2.97 ± 0.082 | 2.46 ± 0.073 | 2.66 ± 0.052
10 | FILLDRLRQFNLQPIST [SMC4] | 2.22 ± 0.04 | 1.56 ± 0.037 | 1.49 ± 0.061 | 1.32 ± 0.042
11 | LTKYKEMERIVKNLTKY [SRP68] | 2.96 ± 0.069 | 2.85 ± 0.073 | 2.82 ± 0.04 | 2.78 ± 0.041
12 | EGQADIDMESDVEDDDK [POP7] | 3.37 ± 0.095 | 3.18 ± 0.11 | 3.3 ± 0.07 | 3.27 ± 0.042
13 | FFLGYMINRLLLCALDR [RPB2] | 1.51 ± 0.17 | – | – | 1.68 ± 0.12
14 | GVIIKVEESGEHVILGN [SNU114] | 2.65 ± 0.12 | 2.81 ± 0.086 | 3.2 ± 0.14 | 3 ± 0.073
15 | QGIIYAKVNRPAKIVNF [RPN5] | 2.61 ± 0.13 | 2.72 ± 0.15 | 2.37 ± 0.12 | 2.4 ± 0.16
16 | HIEGVVILKKNPDYREE [RPN1] | 2.89 ± 0.086 | 3.07 ± 0.096 | 3.05 ± 0.079 | 3.07 ± 0.066
17 | KPDSDIVALSSEEINQY [PRE6] | 3.12 ± 0.05 | 3.03 ± 0.047 | 3.185 ± 0.03 | 3.17 ± 0.034
18 | QHYKNNSISSQPASYHS [SSN2] | 2.56 ± 0.058 | 3.03 ± 0.067 | 3.05 ± 0.065 | 2.78 ± 0.057
19 | DQKETKKGESEKDASGK [YOR098C/NUP1] | 3.45 ± 0.18 | 3.37 ± 0.15 | 3.49 ± 0.097 | 3.37 ± 0.1
20 | NRRGMLALSGTSASNTS [SNF5] | 3.02 ± 0.064 | 3.1 ± 0.064 | 2.86 ± 0.064 | 2.92 ± 0.066
21 | SRRLMKSLEDLSCQYDN [RPO31] | 2.04 ± 0.11 | 1.42 ± 0.17 | 1.36 ± 0.2 | 1.27 ± 0.085
22 | FTAEGIVPDLIINPHAI [RPB2] | 2.24 ± 0.069 | 2.36 ± 0.081 | 2.08 ± 0.081 | 2.67 ± 0.082
23 | VEKTEKPKKPKGRAYKR [RPS30A] | 3.16 ± 0.098 | 3.24 ± 0.091 | 3.07 ± 0.06 | 3.05 ± 0.07
24 | RYLTLLSNEFTATNSKG [ECM29] | 2.89 ± 0.073 | 2.76 ± 0.064 | 2.61 ± 0.088 | 2.83 ± 0.052
25 | NEIEGKNEETPQNEKPP [RPC25] | 2.76 ± 0.21 | 3.14 ± 0.15 | 2.22 ± 0.11 | 3.3 ± 0.078
26 | MLASQANGGSTIISPHK [DSN1] | 3.42 ± 0.17 | 3.43 ± 0.14 | 3.45 ± 0.073 | 3.28 ± 0.15
27 | VTYALSGYVRSRGESDD [RPS21A] | 3.3 ± 0.22 | 3.07 ± 0.29 | 3.2 ± 0.16 | 3.3 ± 0.19

Row | Sequence | protein stability index (doa10∆) | protein stability index (pdr5∆) | protein stability index (san1∆) | protein stability index (ubr1∆)
28 | FNAGSNPPSYQSSEDVI [RPB7] | 2.83 ± 0.24 | 2.67 ± 0.21 | 2.72 ± 0.27 | 2.65 ± 0.14
29 | QEYAIEMKIGSIESKLE [SMC1] | 2.84 ± 0.091 | 3.34 ± 0.12 | 2.74 ± 0.1 | 2.94 ± 0.093
30 | QALEKIGIVEISPKGGR [RPS19A] | 2.46 ± 0.15 | 2.74 ± 0.18 | 2.2 ± 0.13 | 2.56 ± 0.15
31 | VDSWDREFLKVDQEMLY [SKP1] | 3.43 ± 0.12 | 3.29 ± 0.078 | 3.21 ± 0.1 | 3.26 ± 0.086
32 | GLGMISASHILIPASDL [PRP8] | 2.06 ± 0.05 | 2.41 ± 0.043 | 1.75 ± 0.06 | 2.19 ± 0.036
33 | IGANIYQSPTIFKIVQS [MED6] | 2.25 ± 0.069 | 2.08 ± 0.072 | 1.84 ± 0.1 | 2.27 ± 0.037
34 | ESYYNWKYNNFLQKFEI [YML103C/NUP188] | 2.47 ± 0.056 | 2.83 ± 0.052 | 2.77 ± 0.059 | 2.72 ± 0.034
35 | ETRNGKVKNQGADVTNT [YCS4] | 3.22 ± 0.1 | 3.45 ± 0.17 | 3.11 ± 0.072 | 3.18 ± 0.076
36 | FMKKLRAAKLAAPENEK [RPS15] | 2.85 ± 0.14 | 3.25 ± 0.17 | 2.48 ± 0.11 | 3.48 ± 0.22
37 | VTTKDDLSGADIQAMCT [RPT2] | 3.15 ± 0.07 | 3.3 ± 0.09 | 3.28 ± 0.038 | 3.35 ± 0.06
38 | GRHHQEEELFQEMIEIS [SRP54] | 3.21 ± 0.058 | 3.3 ± 0.047 | 3.41 ± 0.038 | 3.35 ± 0.058
39 | LYDRPLKPDLNKITNQG [NAS6] | 3.22 ± 0.096 | 3.42 ± 0.1 | 3.11 ± 0.07 | 3.4 ± 0.073
40 | SKEWFQLDDEDFDLLNK [FAS1] | 3.03 ± 0.11 | 3.31 ± 0.1 | 3.28 ± 0.084 | 3.06 ± 0.08
41 | IKAPTVAADGKLVTYIV [YLR335W/NUP2] | 1.61 ± 0.07 | 1.92 ± 0.059 | 1.55 ± 0.084 | 2.16 ± 0.048
42 | REKNSLESGKETALEFL [SMC4] | 3.47 ± 0.17 | 3.17 ± 0.11 | 3.07 ± 0.086 | 3.63 ± 0.093
43 | DLEKLLEMSTEDFVKLA [RPS15] | 3.11 ± 0.15 | 3.13 ± 0.12 | 3.44 ± 0.12 | 3.28 ± 0.08
44 | ESFAELMTKLNSFKLFK [RPC17] | 3.03 ± 0.1 | 2.71 ± 0.086 | 1.59 ± 0.099 | 2.06 ± 0.081
45 | ERNNIGEICKNYELEKI [YDL116W/NUP84] | 2.91 ± 0.14 | 2.82 ± 0.095 | 2.94 ± 0.09 | 2.62 ± 0.059
46 | ERSKQLNEKFQELRKKV [SMC2] | – | 2.78 ± 0.24 | 3.33 ± 0.097 | 2.81 ± 0.15
47 | ESEQELSLHTGFIENCN [MTR3] | 2.62 ± 0.067 | 2.99 ± 0.067 | 2.88 ± 0.063 | 2.93 ± 0.053
48 | STKKIQVATKYASLKLP [YMR129W/POM152] | 1.78 ± 0.047 | 1.93 ± 0.036 | 1.55 ± 0.069 | 1.92 ± 0.038
49 | GIFEKAKAKAVTSKVRN [YMR153W/NUP53] | 2.24 ± 0.1 | 2.59 ± 0.26 | 2.51 ± 0.15 | 2.38 ± 0.085
50 | GSGLLKLSEIILNINNS [SWI1] | 2.69 ± 0.089 | 2.69 ± 0.081 | 2.4 ± 0.098 | 2.85 ± 0.081
51 | MTTWRKLYTKELSVTGS [YMR129W/POM152] | 2.06 ± 0.078 | 1.34 ± 0.072 | 1.41 ± 0.14 | 1.14 ± 0.04
52 | RAVLKSFLESVIRDSVT [HHF1] | 2.62 ± 0.063 | 2.44 ± 0.052 | 1.86 ± 0.063 | 2.12 ± 0.049
53 | FEGTPPFSLTYVRTEET [YMR129W/POM152] | 2.31 ± 0.052 | 2.63 ± 0.056 | 2.54 ± 0.059 | 2.6 ± 0.041
54 | MSSAAEKKPASKAPAEK [HTB2] | 2.74 ± 0.064 | 3.3 ± 0.081 | 2.69 ± 0.08 | 2.91 ± 0.054
